Source: paper PMC6258877

Biological target: short cTag (s-cTag) on a CD8α stalk (human)
Assay: flow cytometry on cells; 293T cells transiently transfected with the mimic constructs (co-expressed EGFP), stained with APC-conjugated streptavidin 48 hr later; MedFI of EGFP-positive cells; staining of cTag8 293T cells reversed by 1 mM biotin, 1 hr, room temperature

streptavidin allophycocyanin (APC), sequence (P22629 25-183): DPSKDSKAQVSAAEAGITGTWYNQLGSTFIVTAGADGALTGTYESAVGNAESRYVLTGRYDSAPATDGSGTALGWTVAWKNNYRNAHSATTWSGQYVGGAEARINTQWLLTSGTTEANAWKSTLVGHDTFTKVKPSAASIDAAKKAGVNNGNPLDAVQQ

For “streptavidin allophycocyanin (APC) (from UniProt P22629 25-183) (natural protein)”, the median fluorescence intensity (MedFI) was 10000.
